Laboratory results as given in publication PMC4671958, “Structure of the Helicase Domain of DNA Polymerase Theta Reveals a Possible Role in the Microhomology-Mediated End-Joining Pathway” (Structure(London, England:1993), 2015).
Values joined by “and” are separate entries in the source; they are usually repeats but may differ in a detail not shown here. Identical values can stand only once.

Experiments:
[1] = molecular target: the molecule itself; assay: AUC; sedimentation velocity, absorbance (280 nm) and interference optics; in the absence of nucleotide
[2] = molecular target: the molecule itself; assay: SEC-MALS; Viscotek TDA 305 system, Shodex KW-803 silica column; in the absence of nucleotide

B1: DNA polymerase theta helicase domain (Polθ-HLD), residues 67–894 (domain or fragment, human, UniProt O75417 67-894, looked up)
chain: DKLLLANWGLPKAVLEKYHSFGVKKMFEWQAECLLLGQVLEGKNLVYSAPTSAGKTLVAELLILKRVLEMRKKALFILPFVSVAKEKKYYLQSLFQEVGIKVDGYMGSTSPSRHFSSLDIAVCTIERANGLINRLIEENKMDLLGMVVVDELHMLGDSHRGYLLELLLTKICYITRKSASCQADLASSLSNAVQIVGMSATLPNLELVASWLNAELYHTDFRPVPLLESVKVGNSIYDSSMKLVREFEPMLQVKGDEDHVVSLCYETICDNHSVLLFCPSKKWCEKLADIIAREFYNLHHQAEGLVKPSECPPVILEQKELLEVMDQLRRLPSGLDSVLQKTVPWGVAFHHAGLTFEERDIIEGAFRQGLIRVLAATSTLSSGVNLPARRVIIRTPIFGGRPLDILTYKQMVGRAGRKGVDTVGESILICKNSEKSKGIALLQGSLKPVRSCLQRREGEEVTGSMIRAILEIIVGGVASTSQDMHTYAACTFLAASMKEGKQGIQRNQESVQLGAIEACVMWLLENEFIQSTEASDGTEGKVYHPTHLGSATLSSSLSPADTLDIFADLQRAMKGFVLENDLHILYLVTPMFEDWTTIDWYRFFCLWEKLPTSMKRVAELVGVEEGFLARCVKGKVVARTERQHRQMAIHKRFFTSLVLLDLISEVPLREINQKYGCNRGQIQSLQQSAAVYAGMITVFSNRLGWHNMELLLSQFQKRLTFGIQRELCDLVRVSLLNAQRARVLYASGFHTVADLARANIVEVEVILKNAVPFKSARKAVDEEEEAVEERRNMRTIWVTGRKGLTEREAAALIVEEARMILQQDLVEM
notes: DNA polymerase theta (Polθ, POLQ gene), human, helicase domain, residues 67–894; printed monomer mass 93,080 Da; Tetramer in crystals (by crystallographic symmetry) and in solution; Further construct details may stand in the Supplemental Experimental Procedures; also called Polθ helicase domain; 67–894 construct
stoichiometry N [1]: 4 and 3.2 | stoichiometry N [2]: ~4
